Measured values published in patent US5607847.

Biological target: gp120 of HIV-1 strain IIIB (HIV-1 IIIB)

B1: murine monoclonal antibody NM-01 (antibody, V domains shown)
VH: QIQLKESGPAVIKPSQSLSLTCIVSGFSITSSSYCWHWIRQPPGKGLEWMGRICYEGSIDYSPSIKSRSTISRDTSLNRFFIQLSSVTNEDTAMYYCSRENHGTTTSMDYWGQGTSVTVSS
VL: DIVLTQSPASLAVSLGQRATISCRASESVDSYGNSFMHWYQQKPGQSPKLLIYVASNLESGVPARFSGSGSRTDFTLTIDPVEADDAATYYCQQNNEDPLTFGAGTKLELK
  50% neutralization by the p24 assay: 0.15 µg/mL
  ID50 (reverse transcriptase assay): 0.2 µg/mL
